The data set concerns the molecule itself. As to the kind of experiment: AUC.

B1: human progesterone receptor B-isoform (PR-B), residues 1-933 (natural protein, UniProt P06401 1-933, looked up)
chain: MTELKAKGPRAPHVAGGPPSPEVGSPLLCRPAAGPFPGSQTSDTLPEVSAIPISLDGLLFPRPCQGQDPSDEKTQDQQSLSDVEGAYSRAEATRGAGGSSSSPPEKDSGLLDSVLDTLLAPSGPGQSQPSPPACEVTSSWCLFGPELPEDPPAAPATQRVLSPLMSRSGCKVGDSSGTAAAHKVLPRGLSPARQLLLPASESPHWSGAPVKPSPQAAAVEVEEEDGSESEESAGPLLKGKPRALGGAAAGGGAAAVPPGAAAGGVALVPKEDSRFSAPRVALVEQDAPMAPGRSPLATTVMDFIHVPILPLNHALLAARTRQLLEDESYDGGAGAASAFAPPRSSPCASSTPVAVGDFPDCAYPPDAEPKDDAYPLYSDFQPPALKIKEEEEGAEASARSPRSYLVAGANPAAFPDFPLGPPPPLPPRATPSRPGEAAVTAAPASASVSSASSSGSTLECILYKAEGAPPQQGPFAPPPCKAPGASGCLLPRDGLPSTSASAAAAGAAPALYPALGLNGLPQLGYQAAVLKEGLPQVYPPYLNYLRPDSEASQSPQYSFESLPQKICLICGDEASGCHYGVLTCGSCKVFFKRAMEGQHNYLCAGRNDCIVDKIRRKNCPACRLRKCCQAGMVLGGRKFKKFNKVRVVRALDAVALPQPVGVPNESQALSQRFTFSPGQDIQLIPPLINLLMSIEPDVIYAGHDNTKPDTSSSLLTSLNQLGERQLLSVVKWSKSLPGFRNLHIDDQITLIQYSWMSLMVFGLGWRSYKHVSGQMLYFAPDLILNEQRMKESSFYSLCLTMWQIPQEFVKLQVSQEEFLCMKVLLLLNTIPLEGLRSQTQFEEMRSSYIRELIKAIGLRQKGVVSSSQRFYQLTKLLDNLHDLVKQLHLYCLNTFIQSRALSVEFPEMMSEVIAAQLPKILAGMVKPLLFHKK
For B1, the “stoichiometry N” value amounted to 2.

(Values after article PMC2808462 (Biochemistry, 2010).)
